{
  "source": "the nanobody polyreactivity screen of Harvey et al. (2022)",
  "data": [
    {"test": "yeast display, Sf9 membrane polyspecificity reagent, FACS + sequencing; frameworks hold sequencing errors", "how_it_was_run": "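Sorting gates, low and high (top ~1%), were placed on anti-HA fluorescence to track expression and on streptavidin fluorescence to track reagent binding. A clone's polyreactivity label is taken from the gate it came out of. The reagent was 10% biotinylated, detergent-solubilized Sf9 membrane, applied for 1 hour at 4 °C to galactose-induced yeast display cells.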", "values": [
      {"sequence": "QVQLVESGGGLVQAGGSLRLSCAASGSIFDRYDMGWYRQAPGKERELVAAISTGGSTNYADSVKGRFTISRDNAKNTVYLHMNSLKPEDTAVYYCADRYLYRMYYWGQCTQVTVSS", "polyreactivity (PSR sort gate)": "low polyreactivity"},
      {"sequence": "QVQLVESGGGLVQAGGSLRLSCAASGSIFDSNAMGRYRQAPGKERELVAAISLSGGSTYYADSVKGRFTISRDNAKNTVYLQMNSLKPVDTAVYYCAKDGWYEYYWGQGTQVTVSS", "polyreactivity (PSR sort gate)": "low polyreactivity"},
      {"sequence": "QVQLVESGGGLVQAGGSLRLSCAASGSIFDSNAMGWYRQAPGKETELVASITSDGDTYYADSVKGRFTISRDNAKNTVYLQIKSVKPEDTAVYYCAAYVPYSGLDYWGQGTQVTVSS", "polyreactivity (PSR sort gate)": "low polyreactivity"},
      {"sequence": "QVQLVESGGGLVQAGGSLRLSCAASGSIFDSNTMGWYRQAPRKERELVAAITGTGTSTYYADSVKGRFTISRDNAKNTVYLQMNSLKPEDTAVYYCAADLEYKTWWYDYWGQGTQVTVSS", "polyreactivity (PSR sort gate)": "low polyreactivity"},
      {"sequence": "QVQLVESGGGLVQAGGSLRLSCAASGSIFDSYAMGWYRQAPGKERELVADITSDGSTHYADSVKGRFTISRDNAKNTVYLQMNSLKAEDTAVYYCAADYFFYWLGVPVVDVYYWGQGTQVTVSS", "polyreactivity (PSR sort gate)": "low polyreactivity"},
      {"sequence": "QVQLVESGGGLVQAGGSLRLSCAASGSIFDSYDRGWYREAPGKERELVAAITSGGSTNYADSVKGRFTISRDNAKNTVYLQMNSLKPEDTAVYYCAAYYWYPVYYGYDYGGQGTQVTVSS", "polyreactivity (PSR sort gate)": "low polyreactivity"},
      {"sequence": "QVQLVESGGGLVQAGGSLRLSCAASGSIFDSYTMGWYRQAPGKERELVATINRSGGSTYYADSVKGRFTISRDNAKNTVYLQMNSLKPEDTAVYYCANVYPYTPYSSWRSKYDYWGQGTQVTVSS", "polyreactivity (PSR sort gate)": "low polyreactivity"},
      {"sequence": "QVQLVESGGGLVQAGGSLRLSCAASGSIFDTNAMRWYRQAPGKERELVAAISFSGVRTYYEDSVKGRFTISRYNAKNTVSLQMYSLKPEDTAVYYCAAESGKYLESRYRYYTRYYYWGQGTEVTVSS", "polyreactivity (PSR sort gate)": "high polyreactivity"},
      {"sequence": "QVQLVESGGGLVQAGGSLRLSCAASGSIFDTYAMGWYRQAPGKEREFVAAISGTDGSTYYADSVKGRFTISRDNAKNTVYLQMNSLKPEDTAVYYCNAEPPRGDTVSSGGEMDYWGQGTQVTVSS", "polyreactivity (PSR sort gate)": "low polyreactivity"},
      {"sequence": "QVQLVESGGGLVQAGGSLRLSCAASGSIFDTYAMGWYRQAPGKEREFVAAISRNGGSTYYADSVKGRFTISRDNAKNTVYLQMNSLKAEDTAVYYCATDKRHKFDYWGQGTQVTVSS", "polyreactivity (PSR sort gate)": "low polyreactivity"},
      {"sequence": "QVQLVESGGGLVQAGGSLRLSCAASGSIFDTYAMGWYRQAPGKERELVAAISSGGRTYYADSVKGRFSISRDNAKNTVYLQMNSLKPEDTAVYYCAVRPRPGYYYWGQGTQVSVSS", "polyreactivity (PSR sort gate)": "high polyreactivity"},
      {"sequence": "QVQLVESGGGLVQAGGSLRLSCAASGSIFDTYAMGWYRQAPGKERELVAAITQSGDRTYYADSVKGRFTISRDNAKNTVYLQMNSLKPEDTAVYYCYTRRGSAWSCDYWGQGTQVTVSS", "polyreactivity (PSR sort gate)": "low polyreactivity"},
      {"sequence": "QVQLVESGGGLVQAGGSLRLSCAASGSIFDTYAMGWYRQAPGKERELVAAITRRAGSTYYADSVKGRFTISRDNAKNTVYLQMNSLKPEDTPVYYGAAGYDRYPGVIDEYWGQGTEVTVSS", "polyreactivity (PSR sort gate)": "low polyreactivity"},
      {"sequence": "QVQLVESGGGLVQAGGSLRLSCAASGSIFDTYAMGWYRQAPGKERELVAAITWSGSSTYYADSVKGRFTISRDNSKNTVYLQMNSLKPEDTAVYYCAKDYYREVTTEYDYWGQGTQVTVSS", "polyreactivity (PSR sort gate)": "high polyreactivity"},
      {"sequence": "QVQLVESGGGLVQAGGSLRLSCAASGSIFDTYTMGWYRQAPGKERELVAAITSGTTTTYADSVKGRFTISRDNAKNTVYLQMNSLKPEDTAVYYCAARTSGSFDYCGQGTQVTVSS", "polyreactivity (PSR sort gate)": "low polyreactivity"},
      {"sequence": "QVQLVESGGGLVQAGGSLRLSCAASGSIFDVNAMGWSRQPPGKERELVAVISSSDSTDYADSVKGRFTISRDNAKNTVYLQMNSLKPEDTAVYYCAADEYQDRPDDYWGQGTQVTVSS", "polyreactivity (PSR sort gate)": "low polyreactivity"},
      {"sequence": "QVQLVESGGGLVQAGGSLRLSCAASGSIFDVNAMGWYRQAPGKQRELVAAISDSGGSTYYADSVKGRFTISRDNAKNTVYLQMNSLKPEDTAVYYCNADWSWYNYYDFDYWGQGTQVTVSS", "polyreactivity (PSR sort gate)": "low polyreactivity"},
      {"sequence": "QVQLVESGGGLVQAGGSLRLSCAASGSIFDVYTMGWYRQAPGKERELVAAINTGGGSTYYADSVKGRFTISRDNAKNTVYLQMNSLKPEETAVYYCAASVYHYGPLYYWGQGTQVTVSS", "polyreactivity (PSR sort gate)": "low polyreactivity"},
      {"sequence": "QVQLVESGGGLVQAGGSLRLSCAASGSIFDWNALGWYRQAPGKERELVASITGSGGGTNYADSLKGRFTISRDNAKNTVYFQMNSLNPEDTAVYFCNADGLNLDGHEYWGQATQVTVSS", "polyreactivity (PSR sort gate)": "low polyreactivity"},
      {"sequence": "QVQLVESGGGLVQAGGSLRLSCAASGSIFDWYAIGWYRQAPGKEGELVAAISSGDSTYYADSVKGRFTISRDNAKNTVVLQMNSLKAEETSVSDCAAVTKLSGIRYNYWGQGSQVTVSS", "polyreactivity (PSR sort gate)": "low polyreactivity"},
      {"sequence": "QVQLVESGGGLVQAGGSLRLSCAASGSIFDWYAMGWYRQAPGKEGELVAAISSGDSTYYADSVKGRFTISRDNAKKTVYLQMNSLKPEDTAVYYCAAVTKLSGIRYNYWGQGTQVTVSS", "polyreactivity (PSR sort gate)": "low polyreactivity"},
      {"sequence": "QVQLVESGGGLVQAGGSLRLSCAASGSIFDWYAMGWYRQAPGKERELVAAIDSSGSSTYYADSVKGRFTISRDNAKNTVYLQMNSLKPEDTAVYYCAADSDWIRYWFGSLYGSDYWGQGTQVTVSS", "polyreactivity (PSR sort gate)": "low polyreactivity"},
      {"sequence": "QVQLVESGGGLVQAGGSLRLSCAASGSIFDWYVMGWYRQPPGKERELVATITRDGSTNYADSVKGRFTISRDNAKNTVYLQMNSLKPEDTAVYYCNAASRAYGYNYWGQGTQVTVSS", "polyreactivity (PSR sort gate)": "low polyreactivity"},
      {"sequence": "QVQLVESGGGLVQAGGSLRLSCAASGSIFDYNAMGGYRQAPGKERELVAAISSGGSTYYADSVKGRFTISRDNAKNTVNLQMNSLKPEDTAVYYCAVKFWVVIQFDYWGQGTHVTVSS", "polyreactivity (PSR sort gate)": "low polyreactivity"},
      {"sequence": "QVQLVESGGGLVQAGGSLRLSCAASGSIFDYNAMGWYRQAPGKERELVASIRWSGGRTYYADSVKGRFTISRDNAKNTVYLQMNSLKPEDTAVYYCNRKPQEYVLQGSSNGYDYWGQGTQVTVSS", "polyreactivity (PSR sort gate)": "low polyreactivity"},
      {"sequence": "QVQLVESGGGLVQAGGSLRLSCAASGSIFDYNAMGWYTQAPGKERELVAAITSGGSTNYADSVKGRFTISRDNAKNTVYLQMNSLKPEDTAVYYCAADHDYYPSNLDYWGQGTQVTVSS", "polyreactivity (PSR sort gate)": "low polyreactivity"},
      {"sequence": "QVQLVESGGGLVQAGGSLRLSCAASGSIFDYNTMGWYRQAPGKERELVAVISGTGGSTYYADSVKGRFTISRGNAKNTVYLQMNSLKPEDTAVYYCAADTFVRNQWYLVEYWGQGTQVTVSS", "polyreactivity (PSR sort gate)": "low polyreactivity"},
      {"sequence": "QVQLVESGGGLVQAGGSLRLSCAASGSIFDYYAMGWYRQAPGKERELVAAISSSGARTSYADSVKGRFTISRDNAKNTVYLQMNSLKPEDTAVYYCAAPYRSLKTGRYDYWGQGTQVTVSS", "polyreactivity (PSR sort gate)": "high polyreactivity"},
      {"sequence": "QVQLVESGGGLVQAGGSLRLSCAASGSIFDYYAMGWYRQAPGKERELVAAISWSGGSTYYADSVKGRFTISRDNAKNTVYLQMNSLKPEDTAVYYCAALSLAYHEYDYWGLGTQVTVSS", "polyreactivity (PSR sort gate)": "high polyreactivity"},
      {"sequence": "QVQLVESGGGLVQAGGSLRLSCAASGSIFDYYAMGWYRQAPGKERELVADITSGGSTNYADSVKGRFTISRDNAKNTVYLQMNSLKPEDTAVYYCNALASRYPAYYYWGQGTQVTVSS", "polyreactivity (PSR sort gate)": "low polyreactivity"},
      {"sequence": "QVQLVESGGGLVQAGGSLRLSCAASGSIFDYYAMGWYRQAPGKERELVASINSSGTGTYYADSVKGRFTISRDNAKNTVYLQMNSLKPEDTAVYYCATRQAVGYSSGRGYGYWGQGTQVTVSS", "polyreactivity (PSR sort gate)": "low polyreactivity"},
      {"sequence": "QVQLVESGGGLVQAGGSLRLSCAASGSIFDYYAMGWYRQAPGKERELVASITWSGGRTSYADSVKGRFTISRDNAKNTVYLQMNSLKPEDTAVYYCAAKLWSYAYQHKRVWYYYWGQGTQVTVSS", "polyreactivity (PSR sort gate)": "high polyreactivity"},
      {"sequence": "QVQLVESGGGLVQAGGSLRLSCAASGSIFDYYAMGWYRQAPGKETEFVADICSSGTSTYYADSVKGRFTISRDNAKNTVYLQMNSLKPEDTAVYYCNSELDSWLSYVVAYFARFDYWGQGTQVTVSS", "polyreactivity (PSR sort gate)": "high polyreactivity"},
      {"sequence": "QVQLVESGGGLVQAGGSLRLSCAASGSIFDYYTMGWYRQAPGKERELVAAITRSGGRTYYADSVKGRFTISRDYAKNTDYLLMNSLKPEDTAVYNCSTGAVSRFGNGPYDFWGQGTQVTVSS", "polyreactivity (PSR sort gate)": "high polyreactivity"},
      {"sequence": "QVQLVESGGGLVQAGGSLRLSCAASGSIFEFNAMGWYRQAPGKERELVAAITWGGGSTYYADSVKGRFTISRDNAKNTVYLQMNSLKPEDTAVYYCNAAYGRYRYDYWGQGTQVTVSS", "polyreactivity (PSR sort gate)": "low polyreactivity"},
      {"sequence": "QVQLVESGGGLVQAGGSLRLSCAASGSIFEFNTMGWYRQAPGKERELVAAISSSGGRTYYADSVKGRFTISRDNAKNSVYLQMNSLKPEDTAVYYCNARRFVHNPDYDYWGQGTQVTVSS", "polyreactivity (PSR sort gate)": "high polyreactivity"},
      {"sequence": "QVQLVESGGGLVQAGGSLRLSCAASGSIFEGNAMGWYRQAPGKEREFVAAITKRGGSTYYADSVKGRFTISRDNAKITVYLQMNSLKTEDTAVYYCAKGYRRVFGPFYYWGQGTQVTVSS", "polyreactivity (PSR sort gate)": "low polyreactivity"},
      {"sequence": "QVQLVESGGGLVQAGGSLRLSCAASGSIFEGYAMGWYRQAPGKERELVAAISWSSARTYYADSVKGRFTISRDNAKNTVYLQMNSLKPEDTAVYYCNAVARNNRNSRQRIPYDYWGQGTQVTVSS", "polyreactivity (PSR sort gate)": "high polyreactivity"},
      {"sequence": "QVQLVESGGGLVQAGGSLRLSCAASGSIFEGYVMGWYRQAPGKERELVAAITTGGGSTYYADSVKGRFTISRDNAKKTVYLQMNSLKPEDTAVYYCAKDYWFGYEYWGQGTQVTVSS", "polyreactivity (PSR sort gate)": "low polyreactivity"},
      {"sequence": "QVQLVESGGGLVQAGGSLRLSCAASGSIFEGYVMGWYRQAPGKERELVATISFSGGSTYYADSVKGRFTISRDNAKNTVYLQMNSLKPEDTAVYYCNALVYHTKGDYGYWGQGTQVTVSS", "polyreactivity (PSR sort gate)": "low polyreactivity"},
      {"sequence": "QVQLVESGGGLVQAGGSLRLSCAASGSIFEGYVMGWYRQEPGKERELVATISFSGGSTYYADSVKGRFTISRDNAKTTVYLQMNSLKPEDTAVYYCNALVYHTKGDYGYWGQGTQVTVSS", "polyreactivity (PSR sort gate)": "low polyreactivity"},
      {"sequence": "QVQLVESGGGLVQAGGSLRLSCAASGSIFEINAKGWYRQAPGKERELVADIRRGDSTNYADSVKGRFTISRDNAKNTVYLQMNSLKPEDTAVYYCAAYHRLFDYDYWGQGTQVTVSS", "polyreactivity (PSR sort gate)": "high polyreactivity"},
      {"sequence": "QVQLVESGGGLVQAGGSLRLSCAASGSIFEIYAMGWYRQAPGKERELVASITWSGGSTYYADSVKGRFTISRDNAKNTVYLQMNSLKPEDTAVYYCATDKLYGRTVRMDYWGQGTQVTVSS", "polyreactivity (PSR sort gate)": "low polyreactivity"}
    ]}
  ]
}
